# The DeepSol protein solubility set
# Assay: soluble on expression in E. coli; label from the status in PepcDB or PDB records
row,Sequence,soluble on expression in E. coli
1,MKKYILTLILALASLGLYAQTNRNKTIINAALHGWEYEIKAGVNLGGTAPLPFPEEIRSIDGYNPTLSITIEGNMTKWLDTKKKWGIITGLRLENKGMRTKATVKNYNMEIIGYDGNRLKGNWTGGVRTKVQNSYITIPVLAAYKLSPRTTLKLGPYFSYLMDGDFSGHVYEGYLRETNPTGDKINFTNGAIATYDFSGDLRKFQWGVQAGVDWKAFKHLKVHADLNWGLNDIFNKDFKTVTFDMYAIYLNVGFGYAF,not soluble
2,AIAITGETEPACVEDASQLAEQRNGAPVMEAGCAAVPVEANATKRGYWRQRTLHSWFIGRKPQRTCIAVDIDEVLAFFVPELCAFHNKRYGTRLQATDFHSYRFAEVWGGTDTDAIRKVHEFFRTPAFQELQPIPGAKQVLQSRLARFRFVVVTSRQLVIEQETRAWLDKHFSGIFEAIYLGNQWALHPNGEHGTGVGSAAQEPQRLFANRRRKSQVCKACGAAVLIDDLPHNLLDCSENGVFGVLFDFQGQYGWSKSPAFESKDIAVVHSWEAVGELLDRL,soluble
3,MTKQLPPGQFETEKWPILHEGDVYQFDEATWNFRLFGDVKEEVSLSYQEVMQLPKTVSTIDMHCVTTWSKFDTTFEGIAFREFLRFVELDPDVKYVKIYGYLNGDRFGYSANLPLEALMGDDALFVYRWKDKHHDWQDISPKHGYPLRFIPPATFYLWKGAKWASGIRFMKEDEPGYWEERGYSMTANPFKEERFAEWVPRIRF,not soluble
4,GAMGMQQGQMAYDRAITVFSPDGRLFQVEYAREAVKKGSTALGMKFANGVLLISDKKVRSRLIEQNSIEKIQLIDDYVAAVTSGLVADARVLVDFARISAQQEKVTYGSLVNIENLVKRVADQMQQYTQYGGVRPYGVSLIFAGIDQIGPRLFDCDPAGTINEYKATAIGSGKDAVVSFLEREYKENLPEKEAVTLGIKALKSSLEEGEELKAPEIASITVGNKYRIYDQEEVKKFL,soluble
5,MAQVGETEVVAGNVRDIVNRLSRDMTNRNPFTVHQQVERRAPPPQPQAQIYVATYAYSSKQDDELSFVVGDLIELISDVEDGWSKGKLKSTGAVGMFPTNFVTLKPTPSTSAAAVAPAASASTSAGSAARTPAKSIGSEVVMRSEPKAIDRTPSTIISDPAPVLKALETKFSSTFASSAASASTDAETTKTKEMARVKFVYNPQHDDELALKEIDMLINITNKNCGDAGWFEGELHGKKGLFPDNFVELVQVPLGTESGARHGSISRQATLTFVSHKPPPVNPPQPAVPPKPAKISVVRRGFIEKIEKKMFHFISGNN,soluble
6,MGSDKIHHHHHHCDSGSDAVSYGVGTLSLGLSANPSFSTKTRSVNEAEYKKADNYQVTVKDADGASLYNGLYKDMPLSIDLTAGKGYTVKAFYGENVNAGFDKLYVEGSQEFTVSEGEQKNVILYCKPANVKVSVVYTEDFLKYYSDCTVSLSTSHLTAPFEVNMKKDSGKDAYLKANADGEKVSITVGGFRDKEGNEVVMEALVAEKKVAPKTHLTITVDPEVITISTGTASLDVTVDTGTEDKDVNIEIPEEYWPGNASK,not soluble
7,MTVPHIPRGPVMADIAAFRLTEEEKQRLLDPAVGGIILFRRNFQNIEQLKTLTAEIKALRTPELIIAVDHEGGRVQRFIEGFTRLPAMSTLGEIWDKDGASAAETAAGQVGRVLATELSACGIDLSFTPVLDLDWGNCPVIGNRSFHRNPEAVARLALALQKGLTKGGMKSCGKHFPGHGFVEGDSHLVLPEDWRSLSELETADLAPFRIMSREGMAAVMPAHVVYPQVDTKPAGFSEIWLKQILRRDIGFKGVIFSDDLTMEGACGAGGIKERARISFEAGCDIVLVCNRPDLVDELREDFRIPDNPTLAQRWQYMANTLGSAAAQAVMQTADFQAAQAFVAGLASPQDTAGGVKVGEAF,not soluble
8,VGGHEKVISLGFDASKGFHTYAFDWQPGYIKWYVDGVLKHTATANIPSTPGKIMMNLWNGTGVDDWLGSYNGANPLYAEYDWVKYTSNQTGGSFFEPFNSYNSGTWEKADGYSNGGVFNCTWRANNVNFTNDGKLKLGLTSSAYNKFDCAEYRSTNIYGYGLYEVSMKPAKNTGIVSSFFTYTGPAHGTQWDEIDIEFLGKDTTKVQFNYYTNG,soluble
